Assays:
Saccharomyces cerevisiae [1] = test: protein stability index of tFT-peptide fusion in wild type (PSI (0-1 scale)); higher = more stable (slower turnover); conditions: genetic background: wild type
Saccharomyces cerevisiae [2] = test: protein stability index of tFT-peptide fusion in deletion strain of DOA10 (PSI (0-1 scale)); higher = more stable (slower turnover)
Description: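 MPS profiling in S. cerevisiae of two library types built from selected 12-aa C-degron peptides (IN1, IN2, LN1, LN3, VN2, R1-R5, W1-W3, Atg1 and Rpa12 C-termini): saturation mutagenesis libraries and C-terminal +1 capping libraries (13 aa). Each peptide is fused to the C-terminus of a sfGFP-mCherry timer, after a GGGS linker. Cells are FACS-sorted into 8 mCherry/sfGFP bins and sequenced. PSI runs from 0 (unstable) to 1 (stable), measured once in wild type and in the das1Δ or doa10Δ background.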
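For protein stability index of tFT-peptide fusion in deletion strain of DOA10 in this document: PSI per variant is the weighted mean of its sequencing read distribution over the sorted stability bins, counting only variants with over 10 reads summed across bins.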
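For protein stability index of tFT-peptide fusion in wild type in this document: PSI derived as read-weighted mean over the 8 sorting bins, only variants exceeding 10 total reads kept, mCherry placed adjacent to the peptide and sfGFP distal.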

Sequence | protein stability index (Saccharomyces cerevisiae [1]) | protein stability index (Saccharomyces cerevisiae [2])
AITLPMCRLLLR | 0.27 | 0.651
RSLMVLLPLYFR | 0.34 | 0.637
RVTKLDAIYFRI | 0.483 | 0.667
RSLRNLLPLYFR | 0.465 | 0.687
RVTRQDAIYFRI | 0.553 | 0.698
CLVSLPFLLFFR | 0.0627 | 0.618
GLYMCSVMCWFR | 0.263 | 0.383
RSLRVMLPLYFR | 0.217 | 0.625
RSLRVLAPLYFR | 0.352 | 0.687
CLDSLPILLFFR | 0.214 | 0.664
GLYMCHVGCWFR | 0.279 | 0.629
NLYMCSVGCWFR | 0.414 | 0.657
GLYMCRVGCWFR | 0.291 | 0.638
GLYMCSVGLWFR | 0.184 | 0.534
GLYMCVVGCWFR | 0.217 | 0.354
CLVSLWILLFFR | 0.149 | 0.365
AITLPMCPLLLRS | 0.261 | 0.554
CLVELPILLFFR | 0.0526 | 0.625
GFYMCSVGCWFR | 0.204 | 0.632

Sequence | protein stability index (Saccharomyces cerevisiae [1]) | protein stability index (Saccharomyces cerevisiae [2])
GLYMCSVGCWFRH | 0.271 | 0.616
MLYMCSVGCWFR | 0.328 | 0.604
RSKRVLLPLYFR | 0.362 | 0.675
RSLRVLLPLYTR | 0.547 | 0.648
RVWRLDAIYFRI | 0.246 | 0.543
AITLPMCPLLLRT | 0.169 | 0.441
AITTPMCPLLLR | 0.462 | 0.668
AITLPWCPLLLR | 0.153 | 0.662
RSTRLDAIYFRI | 0.53 | 0.678
RSLRLLLPLYFR | 0.289 | 0.656
CLVSLPILLFPR | 0.628 | 0.654
AMTLPMCPLLLR | 0.223 | 0.646
GLYMCSVGCVFR | 0.561 | 0.627
CLVSLPILLFFRL | 0.0549 | 0.512
GLYMCSVGCWTR | 0.555 | 0.601
RSLRVLLPLYFF | 0.364 | 0.502
AITLPMCPPLLR | 0.546 | 0.663
CLVSLDILLFFR | 0.265 | 0.355
AITCPMCPLLLR | 0.297 | 0.643

Sequence | protein stability index (Saccharomyces cerevisiae [1]) | protein stability index (Saccharomyces cerevisiae [2])
RSMRVLLPLYFR | 0.257 | 0.653
RVTRLDEIYFRI | 0.685 | 0.731
GLYMCSVGCKFR | 0.619 | 0.654
RSLRVLLPLHFR | 0.517 | 0.714
AITWPMCPLLLR | 0.226 | 0.7
CLVSLPILLFFF | 0.304 | 0.42
AITLPMFPLLLR | 0.16 | 0.638
RSLRVLVPLYFR | 0.218 | 0.657
RVTRLDAIYFDI | 0.7 | 0.734
GLYMCSVGCWFRL | 0.114 | 0.624
RVTRLDAIYMRI | 0.382 | 0.71
RSLRVLLCLYFR | 0.306 | 0.471
RSLRVLLILYFR | 0.23 | 0.38
CLVSLPILDFFR | 0.638 | 0.678
RSLKVLLPLYFR | 0.27 | 0.666
RSLRSLLPLYFR | 0.469 | 0.702
RVTRLDYIYFRI | 0.179 | 0.538
CLVSLPIALFFR | 0.0824 | 0.631
RLYMCSVGCWFR | 0.382 | 0.644
